Results from publication PMC8869655, “Identification of the Kinase-Substrate Recognition Interface between MYPT1 and Rho-Kinase” (Biomolecules, 2022).

Columns and labels:
[1] = target: T1, GST-Rho-kinase-cat-L (bovine, residues 6–553) (Bos taurus, UniProt Q28021); test: In vitro kinase assay, Rho-kinase-cat-L activity; type: biochemical; conditions: S6 rsk substrate peptide as substrate, 50 μM γ-[32P]ATP, 30 °C, inhibitor at the indicated concentrations, scintillation counting, N = 3
T1 construct: GST-Rho-kinase-cat-L (bovine, residues 6–553); made in house; host or cells: Sf9 cells (baculovirus)
Experimental: (§1) The kinase reactions were performed in 50 μL of a reaction mixture (25 mM Tris-HCl, pH 7.5, 1 mM EDTA, 1 mM EGTA, 1 mM DTT, 5 mM MgCl2, and 50 μM γ-[^32P]ATP [1–20 GBq/mmol]), GST-Rho-kinase-cat-L or other kinases (1–10 nM), and substrates for 10–20 min at 30 °C. The reaction mixtures were applied to cation-exchange membranes and washed with 75 mM phosphoric acid three times, which was followed by scintillation counting.
Figure 4 Direct inhibition of Rho-kinase activity in vitro. (A) In vitro phosphorylation of S6 rsk substrate peptide by Rho-kinase. GST-Rho-kinase-cat-L or GST-ROCK1-cat-L activity was examined using the S6 rsk substrate peptide as a substrate in the presence of γ-[^32P]ATP. GST-MYPT1-684–868 aa-WT or -4A was added at the indicated concentrations. The reaction mixtures were applied onto cation-exchange membranes, followed by scintillation counting. N = 3. (B) Effects of the deletion of DMs on the inhibition of Rho-kinase activity in vitro. GST-Rho-kinase-cat-L activity was examined using the S6 rsk substrate peptide as a substrate in the presence of γ-[^32P]ATP. GST-MYPT1-684–868-4A with or without DMs was added at the indicated concentrations. The reaction mixtures were applied onto cation-exchange membranes, followed by scintillation counting. N = 3. The deletion of DM1 or DM2 moderately weakened the inhibitory effect and the deletion of both DM1 and DM2 completely abrogated the inhibitory effects of the MYPT1 fragment on the Rho-kinase activity. (C) Sequences of the DMs and phosphorylation sites of MYPT1. The sequences of MYPT1 683–715 aa and 836-860 aa and synthetic peptides are shown. Basic (blue), acidic (red), and aliphatic (green) amino acids within DMs are indicated. Phosphorylation sites are replaced by Ala in pseudosubstrate (PS) peptides. (D) Inhibition of Rho-kinase activity by PS2 + DM2 synthetic peptide. GST-Rho-kinase-cat-L activity was examined using the S6 rsk substrate peptide as a substrate in the presence of γ-[^32P]ATP. Synthetic peptides were added at the indicated concentrations. The reaction mixtures were applied onto cation-exchange membranes, followed by scintillation counting. N = 3. (E) Inhibition of Rho-kinase activity by PS1 + DM3 synthetic peptide. GST-Rho-kinase-cat-L activity was examined using the S6 rsk substrate peptide as a substrate in the presence of γ-[^32P]ATP. Synthetic peptides were added at the indicated concentrations. The reaction mixtures were applied onto cation-exchange membranes, followed by scintillation counting. N = 3.

[2] = target: T1, GST-Rho-kinase-cat-L (bovine, residues 6–553); test: In vitro kinase assay, Rho-kinase-cat-L activity; type: biochemical; conditions: 1 µM inhibitory fragment, Figure S3A, N=3
GST-PKACα = test: In vitro kinase assay, PKA activity; type: biochemical; conditions: S6 rsk substrate peptide (40 µM) as substrate, γ-[32P]ATP, N=3, Figure S3B
Experimental: as §1
(§2) Supplem entary Figure S3. Inhibition of the kinase activity by the MYPT1-684-868 aa-4A […]
(§3) (A) In vitro phosphorylation of various substrates by Rho -kinase. S6 rsk substrate peptide (40 µM), GST-MYPT1 fragments (0.5 µM), GST-MLC (0.5 µM), or GST-Scrib-C (1235-1630 aa) (0.5 µM) was phosphorylated by GS T-Rho-kinase-cat-L with 1 µM GST or GST-MYPT1-684-868 aa-4A in the presence of γ-[32P]ATP. Data represent means ± SD. N=3. (B ) GS T-Rho-kinase-cat-L, GST-MRCKβ-cat-L, and GST-PKACα activities were examined using the S6 rsk substrate peptide (40 µM) as a substrate in the presence of γ-[32P]ATP and GST-MYPT1-684-868 aa-4A fragment at the indicated concentrations. The reaction mixtures were applied onto cation-exchange membranes, followed by scintillation counting. Data represent means ± SD. N=3.
(§4) (1 picture or pasted object on this page, not shown here)

NIH3T3 cells = test: Actin stress fiber formation in NIH3T3 cells; type: cell-based; conditions: GST-MYPT1 fragment expressed in NIH3T3 cells, 24 h, phalloidin staining, N = 4
Experimental: NIH3T3 cells were seeded on polylysine-coated 13-mm coverslips at a density of 4 × 10^4 cells/well in a 6-well dish and cultured in DMEM with 10% calf serum overnight. The cells were transfected with plasmid using LIPOFECTAMINE LTX reagent (Thermo Fisher Scientific, Waltham, MA, USA), according to the manufacture’s protocol. After 24 h, the cells were incubated in fresh DMEM containing 10% calf serum for 20 min, fixed with 3.7% formaldehyde in PBS for 10 min and then treated with PBS containing 0.2% Triton X-100 for 10 min. The fixed cells were blocked with 1% bovine serum albumin for 30 min and stained with the indicated antibodies. Cover slips were mounted with Fluoromount (Diagnostic Biosystems, Pleasanton, CA, USA) and the fluorescence was examined using a confocal laser scanning microscope LSM 780 and LSM5 PASCAL built around an Axio Observer Z1 or Axiovert 200M under the control of LSM software (Carl Zeiss, Oberkochen, Germany). Images were processed using ImageJ or Photoshop (Adobe, San Jose, CA, USA).
Figure 3 Inhibition of MYPT1 phosphorylation by the Rho-kinase-binding fragment of MYPT1. (A,B) Effect of the overexpression of Rho-kinase-binding MYPT1 fragments on GFP-MYPT1 phosphorylation in COS7 cells. Full-length GFP-MYPT1 and the GST-MYPT1 Rho-kinase binding fragment were transiently expressed in COS7 cells. The cell lysates were analyzed by immunoblot analysis using anti-MYPT1-pT855 (top panel), anti-GFP (middle), or anti-GST (bottom) antibodies. The phospho-GFP-MYPT1 levels were quantified and normalized by GFP-MYPT1 levels. Data represent means ± SD. **, p < 0.01, ***, p < 0.001 as compared with the control. (C) Effect of the overexpression of Rho-kinase-binding MYPT1 fragments on stress fiber formation in NIH3T3 cells. GST-MYPT1 fragments were expressed in NIH3T3 cells. The cells were fixed in formaldehyde, and immunostained with phalloidin and anti-GST antibody. […] The percentages of cells with stress fibers throughout the cell (SF(++)), cells with stress fibers partly in the cell (SF(+)), and cells without stress fibers (SF(–)) were analyzed. […]

[3] = test system: GST-MRCKβ-cat-L (human, residues 1–550); test: In vitro kinase assay, MRCKβ activity; type: biochemical; conditions: S6 rsk substrate peptide (40 µM) as substrate, γ-[32P]ATP, N=3, Figure S3B
Experimental: as §1, §2, §3, §4

T1 sequence (Q28021 6-553): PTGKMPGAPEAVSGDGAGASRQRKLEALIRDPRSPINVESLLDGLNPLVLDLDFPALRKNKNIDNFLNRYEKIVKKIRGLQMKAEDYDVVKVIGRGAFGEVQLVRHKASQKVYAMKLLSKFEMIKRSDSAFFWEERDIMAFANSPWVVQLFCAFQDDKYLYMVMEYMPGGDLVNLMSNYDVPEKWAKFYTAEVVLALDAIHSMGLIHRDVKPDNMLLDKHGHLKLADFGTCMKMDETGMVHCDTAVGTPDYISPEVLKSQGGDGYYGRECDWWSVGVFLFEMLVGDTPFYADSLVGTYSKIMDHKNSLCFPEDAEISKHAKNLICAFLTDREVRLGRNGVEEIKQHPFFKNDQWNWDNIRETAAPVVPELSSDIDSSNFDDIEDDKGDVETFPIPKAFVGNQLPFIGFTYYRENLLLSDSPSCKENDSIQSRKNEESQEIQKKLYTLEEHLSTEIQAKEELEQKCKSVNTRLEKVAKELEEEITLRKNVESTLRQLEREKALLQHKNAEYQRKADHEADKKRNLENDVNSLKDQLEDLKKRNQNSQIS

B1: MYPT1-684–868 aa-4A: GST-fused rat MYPT1 fragment 684–868 aa with the four phosphorylation sites replaced with Ala (protein)
chain: KARSRQARQSRRAAQGVTLTDLQEAEKTIGRSRSTRTREQENEEKDKEEKEKQDKEKQEEKKESEVSREDEYKQKYSRTYDETYARYRPVSTSSSSTPSSSSLSTLGSSLYASSQLNRPNSLVGITSAYSRGLTKDNEREGEKKEEEKEGEDKSQPKSIRERRRPREKRRAAGVSFWTQDSDENE
modifications: left off: GST, end not stated, kept
notes: GST-fused rat MYPT1 fragment 684–868 aa with the four phosphorylation sites replaced with Ala
For B1, the “Inhibition of Rho-kinase-cat-L activity (in words)” value [1] was “inhibited the Rho-kinase-cat-L activity”, the “Inhibition of phosphorylation of MLC by Rho-kinase” value ([2]; substrate GST-MLC (0.5 µM)) was “inhibited” and the “Inhibition of phosphorylation of MYPT1 by Rho-kinase” value ([2]; substrate GST-MYPT1 fragments (0.5 µM)) was “much weaker”. For the same molecule, the “Inhibition of phosphorylation of Scrib by Rho-kinase” value ([2]; substrate GST-Scrib-C (1235-1630 aa) (0.5 µM)) was “inhibited”, the “Inhibition of PKA activity (in words)” value (GST-PKACα) was “did not inhibit” and the “Effect on actin stress fiber formation” value (NIH3T3 cells) was “reduced actin stress fibers”. For the same molecule, the “Inhibition of MRCKβ activity (in words)” value [3] was “moderately inhibited”.
